Reference: patent publication EP4556905A1 (Agencia Estatal Consejo Superior De Investigaciones …, dated 2025)

B1: Human PHOX2B transcription factor fragment comprising 26 alanine residues (XS26) (other)
chain: GPGGPGGEPGKGGAAAAAAAAAAAAAAAAAAAAAAAAAAGGLAAAGGPGQGWAPGPGPITSIPDSLGGPFASVLSSLQRPNGAKAALVKSSMF
notes: C-terminal fragment of human PHOX2B (XS construct, 228-314 in wild-type numbering) with the polyAla tract expanded from 20 to 26 alanines (241-266); Made in E. coli as a thioredoxin-His6-TEV fusion and cleaved with TEV; 15N/13C-labelled for NMR; For microscopy a C315 mutant tagged with ATTO-488 or ATTO-565 was mixed 1:400-1:600 with the unlabelled protein; also called +6 Ala variant; expanded …

Assays:
[1] = biological target: Human PHOX2B transcription factor fragment comprising 26 alanine residues (XS26) (human) (UniProt Q99453); assay: CACO NMR, 0.225 mM XS26 incubated 48 h at 25°C with 0.45 mM HSP70 (1:2)
[2] = biological target: Human PHOX2B transcription factor fragment comprising 26 alanine residues (XS26) (human) (UniProt Q99453); assay: 13C-HSQC NMR titration, 0.1 mM XS26, 1:1 molar ratio, 25°C
[3] = biological target: the molecule itself; assay: 15N spin relaxation, self-association
[4] = biological target: B1; assay: confocal fluorescence microscopy, colocalisation in condensates
[5] = biological target: the molecule itself; assay: 15N spin relaxation, overall correlation time, self-association

Row | decrease of NMR signal intensity, polyAla moieties in disordered conformation [2] | decrease of NMR signal intensity, polyAla tract in α-helical conformation [2] | Molecule | binding result [3] | further results
1 | > 50% | < 20% | Human HSP72 (named HSP70) (from UniProt P54652 1-639) |  | decrease of the population of nascent disordered alanines (CACO signal intensity) [1]: 50%
2 | > 50% | < 40% | Human HSP90β (named HSP90) (from UniProt P08238 1-724) |  | 
3 |  |  | Human PHOX2B transcription factor fragment comprising 23 alanine residues (XS23) (other, XS fragment of human PHOX2B with the polyAla tract expanded from 20 to 23 alanines; Made as a thioredoxin-His6-TEV fusion and cleaved with TEV; also called +3 Ala variant) GPGGPGGEPGKGGAAAAAAAAAAAAAAAAAAAAAAAGGLAAAGGPGQGWAPGPGPITSIPDSLGGPFASVLSSLQRPNGAKAALVKSSMF | binds | 
4 |  |  | Human PHOX2B transcription factor fragment comprising 20 alanine residues (XS20) (other, Fragment of residues 228-314 of human PHOX2B, polyAla tract at 241-260; Made as a thioredoxin-His6-TEV fusion and cleaved with TEV; For microscopy a C315 mutant tagged with ATTO-488 or ATTO-565 was mixed 1:400-1:600 with the unlabelled protein; also called wild type PHOX2B fragment; wt PHOX2B (20 alanines)) GPGGPGGEPGKGGAAAAAAAAAAAAAAAAAAAAGGLAAAGGPGQGWAPGPGPITSIPDSLGGPFASVLSSLQRPNGAKAALVKSSMF |  | binding result [4]: binds; binding result [5]: binds
5 |  |  | B1 | binds | 
